# Publication PMC3077247 (EMBO Reports, 2011)
# T1: GST-fusion of the HECT domain of Nedd4, wild type (UniProt P46934-4)
# T1 sequence: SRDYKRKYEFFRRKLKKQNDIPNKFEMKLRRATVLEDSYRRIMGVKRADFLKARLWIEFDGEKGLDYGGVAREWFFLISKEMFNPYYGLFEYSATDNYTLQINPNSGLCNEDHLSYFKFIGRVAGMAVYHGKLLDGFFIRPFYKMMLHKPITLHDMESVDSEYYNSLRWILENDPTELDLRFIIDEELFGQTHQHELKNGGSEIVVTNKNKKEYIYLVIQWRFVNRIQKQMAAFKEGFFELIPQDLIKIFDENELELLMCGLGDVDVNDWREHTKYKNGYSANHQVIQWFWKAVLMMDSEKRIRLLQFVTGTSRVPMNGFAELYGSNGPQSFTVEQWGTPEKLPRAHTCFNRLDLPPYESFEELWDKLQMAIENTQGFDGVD
# T2: HECT domain of Nedd4, Y605A (as used for SPR) (UniProt P46934-4, Y605A)
# T2 sequence: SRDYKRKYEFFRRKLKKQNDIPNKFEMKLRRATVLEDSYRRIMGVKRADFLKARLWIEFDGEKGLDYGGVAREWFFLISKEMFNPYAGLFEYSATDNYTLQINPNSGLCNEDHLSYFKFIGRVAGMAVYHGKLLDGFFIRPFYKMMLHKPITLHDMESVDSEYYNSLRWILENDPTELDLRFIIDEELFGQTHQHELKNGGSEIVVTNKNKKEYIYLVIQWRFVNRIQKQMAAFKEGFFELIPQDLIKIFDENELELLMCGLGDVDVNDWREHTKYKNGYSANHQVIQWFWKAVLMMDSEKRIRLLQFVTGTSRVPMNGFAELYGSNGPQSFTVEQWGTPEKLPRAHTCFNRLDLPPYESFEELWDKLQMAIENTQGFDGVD
# T3: HECT domain of Nedd4, F707A (as used for fluorescence polarisation and SPR) (UniProt P46934-4, F707A)
# T3 sequence: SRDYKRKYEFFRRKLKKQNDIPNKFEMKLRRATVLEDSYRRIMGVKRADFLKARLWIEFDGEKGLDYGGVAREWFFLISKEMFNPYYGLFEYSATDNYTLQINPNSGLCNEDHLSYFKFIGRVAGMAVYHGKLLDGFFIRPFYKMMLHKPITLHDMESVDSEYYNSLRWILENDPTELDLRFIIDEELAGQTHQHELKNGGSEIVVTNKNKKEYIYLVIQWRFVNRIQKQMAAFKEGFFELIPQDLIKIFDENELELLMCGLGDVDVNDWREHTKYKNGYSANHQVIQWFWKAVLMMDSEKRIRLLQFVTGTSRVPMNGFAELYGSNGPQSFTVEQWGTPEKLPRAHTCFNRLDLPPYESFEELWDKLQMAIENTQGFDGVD
# Tests used:
# [1] = biological target: ubiquitin (monomeric) (UniProt P0CG48 1-76); assay: fluorescence polarisation
# [2] = biological target: T1, GST-fusion of the HECT domain of Nedd4, …; assay: pull-down
# [3] = biological target: T2, HECT domain of Nedd4, Y605A (as used …); assay: SPR
# [4] = biological target: T3, HECT domain of Nedd4, F707A (as used …); assay: SPR
Kd [1] [µM],binding result [2],binding result [3],binding result [4],Binder
11,,,,"HECT domain of Nedd4, wild type (as used for crystals, fluorescence polarisation, SPR and supplementary Fig S1) (domain or fragment) SRDYKRKYEFFRRKLKKQNDIPNKFEMKLRRATVLEDSYRRIMGVKRADFLKARLWIEFDGEKGLDYGGVAREWFFLISKEMFNPYYGLFEYSATDNYTLQINPNSGLCNEDHLSYFKFIGRVAGMAVYHGKLLDGFFIRPFYKMMLHKPITLHDMESVDSEYYNSLRWILENDPTELDLRFIIDEELFGQTHQHELKNGGSEIVVTNKNKKEYIYLVIQWRFVNRIQKQMAAFKEGFFELIPQDLIKIFDENELELLMCGLGDVDVNDWREHTKYKNGYSANHQVIQWFWKAVLMMDSEKRIRLLQFVTGTSRVPMNGFAELYGSNGPQSFTVEQWGTPEKLPRAHTCFNRLDLPPYESFEELWDKLQMAIENTQGFDGVD"
,binds,binds,binds,E2 enzyme Ube2D3 (apo form) (enzyme) not shown
